According to paper PMC4674563:

Target: Photosystem II core complex from solubilized grana (SG-PSII) (Nicotiana tabacum (endogenous in thylakoids) | Nicotiana tabacum) (UniProt P69556)
Assay: SEC + native gel or EMSA; Ni-NTA-purified PSII pools on Superose 6 in 40 mM MES-NaOH pH 6.5, 20 mM NaCl, 5 mM MgCl2, 1 mM CaCl2, 10 mM NaHCO3, 0.01% β-DDM; pools and fractions checked by BN-PAGE (3-12% gradient, 4°C); C2 also seen by negative-stain TEM

Photosystem II core complex from solubilized grana (SG-PSII) (from UniProt P69556 1-344; P06411 1-508; P06413 15-473; P69686 1-353; P69384 1-83; P06415 1-73; P60139 1-38; Q40519 38-136)
stoichiometry N: 2
